Assay results reported in patent US20060258562A1 (HEALOR, published 2006).

B1: PKCζ (protein kinase C zeta) (enzyme, mouse, UniProt Q02956 1-592, looked up)
chain: MPSRTDPKMDRSGGRVRLKAHYGGDILITSVDAMTTFKDLCEEVRDMCGLHQQHPLTLKWVDSEGDPCTVSSQMELEEAFRLVCQGRDEVLIIHVFPSIPEQPGMPCPGEDKSIYRRGARRWRKLYRANGHLFQAKRFNRGAYCGQCSERIWGLSRQGYRCINCKLLVHKRCHVLVPLTCRRHMDSVMPSQEPPVDDKNDGVDLPSEETDGIAYISSSRKHDNIKDDSEDLKPVIDGVDGIKISQGLGLQDFDLIRVIGRGSYAKVLLVRLKKNDQIYAMKVVKKELVHDDEDIDWVQTEKHVFEQASSNPFLVGLHSCFQTTSRLFLVIEYVNGGDLMFHMQRQRKLPEEHARFYAAEICIALNFLHERGIIYRDLKLDNVLLDADGHIKLTDYGMCKEGLGPGDTTSTFCGTPNYIAPEILRGEEYGFSVDWWALGVLMFEMMAGRSPFDIITDNPDMNTEDYLFQVILEKPIRIPRFLSVKASHVLKGFLNKDPKERLGCRPQTGFSDIKSHAFFRSIDWDLLEKKQTLPPFQPQITDDYGLDNFDTQFTSEPVQLTPDDEDVIKRIDQSEFEGFEYINPLLLSAEESV
B2: PKCη (protein kinase C eta) (enzyme, mouse, UniProt P23298 1-683, looked up)
chain: MSSGTMKFNGYLRVRIGEAVGLQPTRWSLRHSLFKKGHQLLDPYLTVSVDQVRVGQTSTKQKTNKPTYNEEFCANVTDGGHLELAVFHETPLGYDHFVANCTLQFQELLRTAGTSDTFEGWVDLEPEGKVFVVITLTGSFTEATLQRDRIFKHFTRKRQRAMRRRVHQVNGHKFMATYLRQPTYCSHCREFIWGVFGKQGYQCQVCTCVVHKRCHHLIVTACTCQNNINKVDAKIAEQRFGINIPHKFNVHNYKVPTFCDHCGSLLWGIMRQGLQCKICKMNVHIRCQANVAPNCGVNAVELAKTLAGMGLQPGNISPTSKLISRSTLRRQGKEGSKEGNGIGVNSSSRFGIDNFEFIRVLGKGSFGKVMLARIKETGELYAVKVLKKDVILQDDDVECTMTEKRILSLARNHPFLTQLFCCFQTPDRLFFVMEFVNGGDLMFHIQKSRRFDEARARFYAAEIISALMFLHEKGIIYRDLKLDNVLLDHEGHCKLADFGMCKEGICNGVTTATFCGTPDYIAPEILQEMLYGPAVDWWAMGVLLYEMLCGHAPFEAENEDDLFEAILNDEVVYPTWLHEDATGILKSFMTKNPTMRLGSLTQGGEHEILRHPFFKEIDWAQLNHRQLEPPFRPRIKSREDVSNFDPDFIKEEPVLTPIDEGHLPMINQDEFRNFSYVSPELQL
B3: PKCα (protein kinase C alpha) (enzyme)
chain: not shown
B4: PKCε (protein kinase C epsilon) (enzyme, mouse, UniProt P16054 1-737, looked up)
chain: MVVFNGLLKIKICEAVSLKPTAWSLRHAVGPRPQTFLLDPYIALNVDDSRIGQTATKQKTNSPAWHDEFVTDVCNGRKIELAVFHDAPIGYDDFVANCTIQFEELLQNGSRHFEDWIDLEPEGKVYVIIDLSGSSGEAPKDNEERVFRERMRPRKRQGAVRRRVHQVNGHKFMATYLRQPTYCSHCRDFIWGVIGKQGYQCQVCTCVVHKRCHELIITKCAGLKKQETPDEVGSQRFSVNMPHKFGIHNYKVPTFCDHCGSLLWGLLRQGLQCKVCKMNVHRRCETNVAPNCGVDARGIAKVLADLGVTPDKITNSGQRRKKLAAGAESPQPASGNSPSEDDRSKSAPTSPCDQELKELENNIRKALSFDNRGEEHRASSATDGQLASPGENGEVRPGQAKRLGLDEFNFIKVLGKGSFGKVMLAELKGKDEVYAVKVLKKDVILQDDDVDCTMTEKRILALARKHPYLTQLYCCFQTKDRLFFVMEYVNGGDLMFQIQRSRKFDEPRSRFYAAEVTSALMFLHQHGVIYRDLKLDNILLDAEGHCKLADFGMCKEGIMNGVTTTTFCGTPDYIAPEILQELEYGPSVDWWALGVLMYEMMAGQPPFEADNEDDLFESILHDDVLYPVWLSKEAVSILKAFMTKNPHKRLGCVAAQNGEDAIKQHPFFKEIDWVLLEQKKIKPPFKPRIKTKRDVNNFDQDFTREEPILTLVDEAIIKQINQEEFKGFSYFGEDLMP

These binders were tested against T1, STAT3 (Signal Transducer and Activator of Transcription 3) (mouse, UniProt P42227 2-770) (assay: co-immunoprecipitation from primary keratinocyte lysates, anti-STAT3 Western blot).
T1 construct: Detected by anti-STAT3 Western blot in PKC immunoprecipitates
T1 sequence (P42227 2-770 limits assumed): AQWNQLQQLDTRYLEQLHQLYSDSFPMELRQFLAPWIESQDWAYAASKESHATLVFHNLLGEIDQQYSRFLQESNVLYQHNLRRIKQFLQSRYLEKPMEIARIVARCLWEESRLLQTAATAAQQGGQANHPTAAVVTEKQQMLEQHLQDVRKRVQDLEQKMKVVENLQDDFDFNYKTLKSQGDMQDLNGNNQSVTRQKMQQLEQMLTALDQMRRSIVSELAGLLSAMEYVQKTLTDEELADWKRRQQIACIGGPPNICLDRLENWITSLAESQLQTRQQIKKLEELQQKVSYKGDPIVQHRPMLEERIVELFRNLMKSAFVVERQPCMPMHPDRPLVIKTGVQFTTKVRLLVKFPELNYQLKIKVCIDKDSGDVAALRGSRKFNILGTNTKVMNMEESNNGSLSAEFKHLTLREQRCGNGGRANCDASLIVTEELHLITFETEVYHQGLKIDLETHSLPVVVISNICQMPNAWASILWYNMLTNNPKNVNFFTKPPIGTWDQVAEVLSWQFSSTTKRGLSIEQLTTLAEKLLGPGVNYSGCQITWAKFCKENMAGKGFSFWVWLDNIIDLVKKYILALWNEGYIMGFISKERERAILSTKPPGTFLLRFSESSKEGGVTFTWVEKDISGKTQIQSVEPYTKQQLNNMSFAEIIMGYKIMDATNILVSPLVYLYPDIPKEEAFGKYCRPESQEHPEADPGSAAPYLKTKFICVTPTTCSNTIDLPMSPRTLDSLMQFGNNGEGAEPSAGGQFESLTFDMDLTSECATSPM
Experimental: FIG. 23 identifies a specific interaction between STAT3 and PKCδ in primary skin keratinocytes. Primary keratinocytes were either untreated (upper panel) or infected for 1 hour with isoform specific, recombinant PKC α, δ, η or ζ adenoviruses (lower panel). Cells were extracted and immunoprecipitated (IP) with isoform specific PKC antibodies. The immunoprecipitates were subjected to Western blot analysis using anti-PKCs or anti-STAT3 antibodies.
B1: no binding. B2: no binding. B3: no binding. B4: no binding.
